According to the supplement of paper PMC7877785:
± gives the uncertainty stated by the source.

Experiment: self-splicing fitness, log relative to wild type (ln ratio); higher = more splicing; Tetrahymena group I intron in knt gene, E. coli kanamycin selection, DiMSum; sequences stand for … in CUCUCU…GGAGGGAAAAGUUAUCAGGCAUGCACCUGGUAGCUAGUCUUUAAACCAAUAGAUUGCAUCGGUUUAAAAGGCAAGACCGUCAAAUUGCGGGAAAGGGGUCAACAGCCGUUCAGUACCAAGUCUCAGGGGAAACUUUGAGAUGGCCUUGCAAAGGGUAUGGUAAUAAGCUGACGGACAUGGUCCUAACCACGCAGCCAAGUCCUAAGUCAACAGAUCUUCUGUUGAUAUGGAUGCAGUUCACAGACUAAAUGUCGGUCGGGGAAGAUGUAUUCUUCUCAUAAGAUAUAGUCGGACCUCUCCUUAAUGGGAGCUAGCGGAUGAAGUGAUGCAACACUGGAGCCGCUGGGAACUAAUUUGUAUGCGAAAGUAUAUUGAUUAGUUUUGGAGUACUCGUGGUCG
How it was run: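 Pooled colonies went to amplicon sequencing on an Illumina HiSeq 2500 after six replicate transformations. The plates were LB agar with 100 μg/mL carbenicillin, 50 μM IPTG and 0.2% rhamnose, with or without 25 μg/mL kanamycin, incubated overnight at 37°C or 30°C. The E. coli BL21(DE3) library had all eight P1ex-region intron nucleotides randomised, the intron placed in the knt kanamycin-resistance gene on pET-22b(+). DiMSum fitness is the error-weighted combination of replicate fold changes, kanamycin against none, normalised to wild type.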

Row | Sequence | self-splicing fitness (ln) (30 °C) | self-splicing fitness (ln) (37 °C)
1 | AGUAAGCAAUAUUACGCGCU | -2.64 ± 0.28 | -2.1 ± 0.4
2 | AGUAAGCAAUAUUACGCGUG | -3.44 ± 0.2 | -1.46 ± 0.16
3 | AGUAAGCAAUAUUACGCGUU | -3.44 ± 0.17 | -2.8 ± 0.19
4 | AGUAAGCAAUAUUACGCUAA | -2.36 ± 0.17 | -2.3 ± 0.19
5 | AGUAAGCAAUAUUACGGCAU | -0.486 ± 0.11 | -0.411 ± 0.12
6 | AGUAAGCAAUAUUACGGCCA | -0.532 ± 0.14 | -0.74 ± 0.16
7 | AGUAAGCAAUAUUACGGCUA | 0.0253 ± 0.081 | 0.0684 ± 0.094
8 | AGUAAGCAAUAUUACGGGCU | -1.28 ± 0.12 | -1.6 ± 0.17
9 | AGUAAGCAAUAUUACGGGGA | -3.89 ± 0.31 | -2.3 ± 0.3
10 | AGUAAGCAAUAUUACGUAGG | -3.99 ± 0.19 | -3.09 ± 0.22
11 | AGUAAGCAAUAUUACGUCAG |  | -2.58 ± 0.3
12 | AGUAAGCAAUAUUACGUGAC |  | -2.19 ± 0.2
13 | AGUAAGCAAUAUUACGUUGA | -3.1 ± 0.23 | -2.1 ± 0.24
14 | AGUAAGCAAUAUUACGUUUC | -3.78 ± 0.23 | -1.37 ± 0.21
15 | AGUCAGCAAUAUUACGAAAC |  | -1.45 ± 0.28
16 | AGUCAGCAAUAUUACGAAGG | -1.27 ± 0.08 | -1.46 ± 0.12
17 | AGUCAGCAAUAUUACGAAUA | -0.962 ± 0.2 | -1.22 ± 0.17
18 | AGUCAGCAAUAUUACGACAU | 0.0908 ± 0.012 | -0.0465 ± 0.032
19 | AGUCAGCAAUAUUACGCAAC | -1.65 ± 0.18 | -1.22 ± 0.21
20 | AGUCAGCAAUAUUACGCAGU | -1.89 ± 0.23 | -0.11 ± 0.17
21 | AGUCAGCAAUAUUACGCAUA | -2.09 ± 0.13 | -0.502 ± 0.12
22 | AGUCAGCAAUAUUACGCGAC | -2.59 ± 0.26 | -3.14 ± 0.35
23 | AGUCAGCAAUAUUACGCGUC | -2.65 ± 0.23 | -0.977 ± 0.23
24 | AGUCAGCAAUAUUACGCUGA | -2.55 ± 0.19 | -2.24 ± 0.22
25 | AGUCAGCAAUAUUACGGAUC | -0.312 ± 0.11 | -0.438 ± 0.2

Row | Sequence | self-splicing fitness (ln) (30 °C) | self-splicing fitness (ln) (37 °C)
26 | AGUCAGCAAUAUUACGGAUU | -2.25 ± 0.14 | -1.42 ± 0.11
27 | AGUCAGCAAUAUUACGGCUA | -0.605 ± 0.14 | -0.512 ± 0.13
28 | AGUCAGCAAUAUUACGGGCC | -2.98 ± 0.28 | -2.4 ± 0.35
29 | AGUCAGCAAUAUUACGGGUG | -1.82 ± 0.084 | -0.948 ± 0.12
30 | AGUCAGCAAUAUUACGGUCG | 0.451 ± 0.089 | 0.0344 ± 0.12
31 | AGUCAGCAAUAUUACGGUGU | -1.32 ± 0.075 | -0.39 ± 0.1
32 | AGUCAGCAAUAUUACGGUUG | -2.76 ± 0.12 | -2.8 ± 0.17
33 | AGUCAGCAAUAUUACGGUUU | -0.329 ± 0.065 | -0.197 ± 0.08
34 | AGUCAGCAAUAUUACGUGGG | -4.29 ± 0.21 | -2.44 ± 0.14
35 | AGUCAGCAAUAUUACGUUAA | -3.47 ± 0.18 | -1.77 ± 0.12
36 | AGUCAGCAAUAUUACGUUGU | -3.18 ± 0.12 | -2.87 ± 0.18
37 | AGUGAGCAAUAUUACGAACA | -1.77 ± 0.18 | -0.734 ± 0.15
38 | AGUGAGCAAUAUUACGAACU | -2.3 ± 0.18 | -2.58 ± 0.33
39 | AGUGAGCAAUAUUACGAAUC |  | -1.49 ± 0.38
40 | AGUGAGCAAUAUUACGACCA | -1.79 ± 0.26 | -1.52 ± 0.48
41 | AGUGAGCAAUAUUACGACGA | -2.44 ± 0.21 | -1.13 ± 0.24
42 | AGUGAGCAAUAUUACGAGCG | -0.459 ± 0.1 | -0.0795 ± 0.13
43 | AGUGAGCAAUAUUACGAGGC | -3.83 ± 0.33 | -1.45 ± 0.17
44 | AGUGAGCAAUAUUACGAUUU | -2.6 ± 0.24 | -1.12 ± 0.22
45 | AGUGAGCAAUAUUACGCACG | -1.58 ± 0.18 | -0.941 ± 0.17
46 | AGUGAGCAAUAUUACGCGGA | -2.28 ± 0.3 | -1.99 ± 0.23
47 | AGUGAGCAAUAUUACGCGGG |  | -2.1 ± 0.37
48 | AGUGAGCAAUAUUACGCUGC | -2.29 ± 0.46 | -2.44 ± 0.44
49 | AGUGAGCAAUAUUACGCUGU | -3.12 ± 0.25 | -1.64 ± 0.18
50 | AGUGAGCAAUAUUACGGAUU | -3.48 ± 0.26 | -1.28 ± 0.21

Row | Sequence | self-splicing fitness (ln) (30 °C) | self-splicing fitness (ln) (37 °C)
51 | AGUGAGCAAUAUUACGGGAC | -4.1 ± 0.47 | 
52 | AGUGAGCAAUAUUACGGGGA | -3.7 ± 0.25 | -2 ± 0.21
53 | AGUGAGCAAUAUUACGGGUC | -3.17 ± 0.28 | -3.06 ± 0.43
54 | AGUGAGCAAUAUUACGGUUA | -2.29 ± 0.23 | -2.48 ± 0.2
55 | AGUGAGCAAUAUUACGGUUC | -2.21 ± 0.26 | -1.7 ± 0.38
56 | AGUGAGCAAUAUUACGUCCC | 0.506 ± 0.48 | 0.283 ± 0.36
57 | AGUGAGCAAUAUUACGUCUA | -2.45 ± 0.27 | -1.41 ± 0.2
58 | AGUGAGCAAUAUUACGUCUC |  | -2.46 ± 0.36
59 | AGUGAGCAAUAUUACGUGAC | -2.02 ± 0.35 | -2.39 ± 0.32
60 | AGUUAGCAAUAUUACGACCA | -0.921 ± 0.093 | -0.258 ± 0.13
61 | AGUUAGCAAUAUUACGAGCA | -0.518 ± 0.11 | -0.169 ± 0.12
62 | AGUUAGCAAUAUUACGAUAA | -2.31 ± 0.21 | -0.658 ± 0.22
63 | AGUUAGCAAUAUUACGCACU | -1.6 ± 0.26 | -1.09 ± 0.23
64 | AGUUAGCAAUAUUACGCAUG | -1.91 ± 0.078 | -1.15 ± 0.1
65 | AGUUAGCAAUAUUACGCGUG | -2.38 ± 0.2 | -0.946 ± 0.17
66 | AGUUAGCAAUAUUACGCUGG | -3.07 ± 0.22 | 
67 | AGUUAGCAAUAUUACGGACC | -0.357 ± 0.11 | -0.279 ± 0.16
68 | AGUUAGCAAUAUUACGGAGU | -3.29 ± 0.3 | -1.3 ± 0.2
69 | AGUUAGCAAUAUUACGGAUC | -1.01 ± 0.13 | -1.09 ± 0.18
70 | AGUUAGCAAUAUUACGGCAC | -1.47 ± 0.16 | -1.82 ± 0.25
71 | AGUUAGCAAUAUUACGGCCA | -0.965 ± 0.16 | 0.403 ± 0.29
72 | AGUUAGCAAUAUUACGGCCU | -0.544 ± 0.11 | 0.22 ± 0.13
73 | AGUUAGCAAUAUUACGGUAU | -2.69 ± 0.13 | -1.34 ± 0.13
74 | AGUUAGCAAUAUUACGGUCC | -0.223 ± 0.14 | -0.259 ± 0.19
75 | AUAAAGCAAUAUUACGAAAA | -1.4 ± 0.091 | -0.609 ± 0.11

Row | Sequence | self-splicing fitness (ln) (30 °C) | self-splicing fitness (ln) (37 °C)
76 | AUAAAGCAAUAUUACGAGGG | -3.4 ± 0.15 | -1.64 ± 0.12
77 | AUAAAGCAAUAUUACGAUCG | -0.0352 ± 0.072 | 0.19 ± 0.097
78 | AUAAAGCAAUAUUACGCUAA | -0.787 ± 0.11 | -0.736 ± 0.14
79 | AUAAAGCAAUAUUACGCUAU | -1.28 ± 0.089 | -0.692 ± 0.098
80 | AUAAAGCAAUAUUACGCUCA | 0.119 ± 0.11 | -0.112 ± 0.12
81 | AUAAAGCAAUAUUACGGACU | -0.0332 ± 0.073 | 0.654 ± 0.092
82 | AUAAAGCAAUAUUACGGAGA | -3.18 ± 0.19 | -1.86 ± 0.19
83 | AUAAAGCAAUAUUACGGGUA | -0.752 ± 0.082 | -1.06 ± 0.1
84 | AUAAAGCAAUAUUACGGUCA | 0.0241 ± 0.071 | 0.459 ± 0.1
85 | AUAAAGCAAUAUUACGUAGU | -1.9 ± 0.12 | -0.946 ± 0.17
86 | AUAAAGCAAUAUUACGUAUG | -2.13 ± 0.097 | -1.34 ± 0.12
87 | AUAAAGCAAUAUUACGUCAC | -3.46 ± 0.14 | -3.09 ± 0.2
88 | AUAAAGCAAUAUUACGUCCU | 0.13 ± 0.054 | 0.82 ± 0.079
89 | AUACAGCAAUAUUACGAGCU | -1.51 ± 0.1 | -1.26 ± 0.11
90 | AUACAGCAAUAUUACGAUCA | -0.716 ± 0.086 | -0.37 ± 0.093
91 | AUACAGCAAUAUUACGAUGG | -3.04 ± 0.18 | -2.35 ± 0.23
92 | AUACAGCAAUAUUACGAUUG | -3.14 ± 0.14 | -2.59 ± 0.2
93 | AUACAGCAAUAUUACGCAAU | -1.93 ± 0.15 | -1.02 ± 0.16
94 | AUACAGCAAUAUUACGCACU | -0.66 ± 0.11 | 0.0538 ± 0.14
95 | AUACAGCAAUAUUACGCAUU | -1.85 ± 0.088 | -1.4 ± 0.11
96 | AUACAGCAAUAUUACGCGAA | -1.42 ± 0.12 | -0.301 ± 0.12
97 | AUACAGCAAUAUUACGCUGA | -2.14 ± 0.099 | -0.86 ± 0.1
